Here are results for two molecules from article PMC8508734 (International Journal of Molecular Sciences, 2021).

Assay [1] has as its target T1, histamine H3 receptor (H3R) (Rattus norvegicus, UniProt Q9QYN8).
T1 construct: gene Hrh3; long isoform H3(445)R, C-terminal RLuc / YFP fusions
Briefly: BRET between H3R-RLuc and H3R-YFP in HEK […] cells; also […]GTPγS binding (inverse agonist). The assay is classed as cell-based. In general terms: BRET reads energy transfer from a luciferase to a nearby fluorophore.

The target of assay [2] is T2, H3R-RLuc (rat histamine H3 receptor, long isoform H3(445)R, fused to Renilla Luciferase) (rat, UniProt Q9QYN8 1-445).
T2 construct: histamine H3 receptor, rat, long isoform H3(445)R (445 residues), cDNA amplified without its stop codon and cloned into pRL-CMV-RLuc; The same construct was expressed in HEK 293 cells and in rat cortical neurons; the assay tells which; also called H3R-Luc; source: rat cortical neurons in primary culture, transfected (lipofectamine 2000); not shown: Renilla Luciferase (RLuc), C-terminal, kept
Briefly: FRET or BRET; BRET donor saturation curves in intact living HEK 293 cells, constant RLuc fusion and increasing YFP fusion, 48 h after transfection, HBSS, 25 °C, coelenterazine H 5 µM; without or with imetit or thioperamide (100 nM). The conditions noted are these: partners not purified.

A word on the EC50: it is the concentration giving half of the maximal effect. Low readings indicate a more potent agent, high ones a less potent agent. For `S=C(NC1CCCCC1)N1CCC(c2cnc[nH]2)CC1` [thioperamide], the midpoint of the response in assay [1], the EC50, lay at 2 ± 1 nM.

B1: H3R-YFP (rat histamine H3 receptor, long isoform H3(445)R, fused to Yellow Fluorescent Protein) (receptor, UniProt Q9QYN8 1-445, looked up)
chain: MERAPPDGLMNASGTLAGEAAAAGGARGFSAAWTAVLAALMALLIVATVLGNALVMLAFVADSSLRTQNNFFLLNLAISDFLVGAFCIPLYVPYVLTGRWTFGRGLCKLWLVVDYLLCASSVFNIVLISYDRFLSVTRAVSYRAQQGDTRRAVRKMALVWVLAFLLYGPAILSWEYLSGGSSIPEGHCYAEFFYNWYFLITASTLEFFTPFLSVTFFNLSIYLNIQRRTRLRLDGGREAGPEPPPDAQPSPPPAPPSCWGCWPKGHGEAMPLHRYGVGEAGPGVEAGEAALGGGSGGGAAASPTSSSGSSSRGTERPRSLKRGSKPSASSASLEKRMKMVSQSITQRFRLSRDKKVAKSLAIIVSIFGLCWAPYTLLMIIRAACHGRCIPDYWYETSFWLLWANSAVNPVLYPLCHYSFRRAFTKLLCPQKLKVQPHGSLEQCWK
notes: histamine H3 receptor, rat, long isoform H3(445)R (445 residues), cDNA amplified without its stop codon and cloned into pEYFP-N1; The same construct was expressed in HEK 293 cells and in rat cortical neurons; the assay tells which; also called C-terminal YFP-fused H3R; source: rat cortical neurons in primary culture, transfected (lipofectamine 2000); not shown: YFP, C-terminal, kept
In the case of B1, in assay [2], the “BRET50 (basal)” value turned out to be 1.24 acceptor/donor ratio, the “BRET50 (with imetit 100 nM)” value was 1.19 acceptor/donor ratio and the “BRET50 (with thioperamide 100 nM)” value stood at 1.56 acceptor/donor ratio.
